Source: patent publication US11753455B2, “Compounds for treatment of obesity” (Novo Nordisk A/S, priority 2018, dated 2023)

Tested on: brain regions of mice (C57BL/6J)
Test: In vivo imaging of fluorescently labelled GLP-1 Fab fusion proteins in brain (LSFM)
Conditions: single i.v. dose 120 nmol/kg, 6 hours
Procedure: The two fusion proteins include one and the same GLP-1 receptor agonist compound but differ in the Fab part. […] The study is an acute study in mice.
The mice were anesthetised with isoflurane 6 hours (“6H”) following administration of compound and euthanised by transcardiac perfusion with 10 ml heparinised (10 U/ml) saline followed by 10 ml 10% neutral buffered formalin (NBF). Brains were removed and immersed into 10% NBF and stored at 4° C. O/N until further processed.
The brains were dehydrated and saturated in dibenzyl ether (DBE) to minimise scattering of light during scanning by removal of water, and by matching of the refractive index. Brain tissue was dehydrated at room temperature in graded tetrahydrofuran (THF) diluted in demineralised H2O (w/v) 50/80/96/99%/2×100% 6-12 hours for each step. The brains were then cleared at room temperature in 3×DBE for 6-12 hours each step.
Brain samples were scanned using an UltraMicroscope II LSFM system (Lavision Biotec, Bielefeld, Germany) in 10.32 μm isotropic resolution. Data acquisition was performed using a 620/60 nm excitation filter and 680/30 nm emission filter for imaging autofluorescence, and a 710/75 nm excitation filter and 780/40 nm emission filter for imaging specific signals.
Images are single plane images of a z plane (2D). Spectral unmixing was performed to minimise the contribution of tissue auto-fluorescence in the images of the specific signals presented. The unmixing was carried out in Imaris (Release 7.6.5, Zurich, Switzerland) on imported tiff-files. The estimated auto-fluorescence contribution in the specific channel was calculated and removed based on ratios of voxel intensities between selected voxels in the unspecific recording and the corresponding voxels in the specific channel. A ratio was computed for 40 sets of voxels selected based on the histogram of the unspecific recording. The unmixing algorithm was written in Matlab (Release 2012b, Math Works, Natick, Massachusetts, United States) and applied as a XT-plugin in Imaris.
Images were registered to a common reference atlas space for visualisation and quantification using the Elastix software library version 4 (Klein, Stefan, et al. “Elastix: a toolbox for intensity-based medical image registration.” IEEE transactions on medical imaging 29.1 (2010): 196-205). A source image IS(x) was registered to the target atlas image IT(x) by finding a coordinate transformation T(x) that made IS(T(x)) spatially aligned with IT(x). […] Quantification was performed by summation of the unmixed intensity value of all voxels within the individual brain regions, indicating the total fluorescence signal from the compounds in these regions. […] The total signal thus indicates the total fluorescence signal from the compounds in these regions. […]

[1] = active vs inactive TfR compound

B1: Example 8: VivoTag750 fluorescence labelled GLP-1 anti TfR-Fab fusion protein of Example 6 (conjugate)
chain: HGEGTFTSDVSSYLEEQAAREFIAWLVKGRPGGGSGGGSGGGSGGGSDIQMTQSPASLSASLEEIVTITCQASQDIGNWLAWYQQKPGKSPQLLIYGATSLADGVPSRFSGSRSGTQFSLKISRVQVEDIGIYYCLQAYNTPWTFGGGTKLELKRADAAPTVSIFPPSSEQLTSGGASVVCFLNNFYPKDINVKWKIDGSERQNGVLNSWTDQDSKDSTYSMSSTLTLTKDEYERHNSYTCEATHKTSTSPIVKSFNRNECEVQLVESGGGLVQPGNSLTLSCVASGFTFSNYGMHWIRQAPKKGLEWIAMIYYDSSKMNYADTVKGRFTISRDNSKNTLYLEMNSLRSEDTAMYYCAVPTSHYVVDVWGQGVSVTVSSAKTTPPSVYPLAPGSAAQTNSMVTLGCLVKGYFPEPVTVTWNSGSLSSGVHTFPAVLQSDLYTLSSSVTVPSSTWPSETVTCNVAHPASSTKVDKKIVPRDCGHHHHHHHHHH
modifications: VivoTag750 fluorescent label; GLP-1 anti TfR-fab fusion protein; DISULFID (70)..(135); DISULFID (181)..(241); DISULFID (261)..(481); DISULFID (283)..(357); DISULFID (407)..(461)
- total fluorescence signal in brain regions that do not express the GLP-1R (FIG. 16D) [1]: slightly higher
- total fluorescence signal in circumventricular organs expressing the GLP-1R but devoid of a BBB (FIG. 16B) [1]: slightly higher
- total fluorescence signal in brain regions expressing the GLP-1R (FIG. 16A) (compared to GLP-1-Inactive TfR): higher
- total fluorescence signal in brain structures expressing the GLP-1R which are protected by the BBB (FIG. 16C) (compared to GLP-1-Inactive TfR): highly increased
